Kd data for two molecules are collected here from PMC5683014 (Acta Crystallographica. Section D, Structural Biology, 2017).

Common to all, as to assay: BLI; BLItz (ForteBio); biotinylated Fab loaded on streptavidin biosensors (rehydrated in PBS with 0.1% BSA); lysozymes passed on and off at a range of concentrations; global fits of kinetics (BlitzPro 1.2.1.3)
Background: BLI is a label-free optical method that tracks binding on a fibre tip over time.

Assay [1] has as its target HyHEL10 Fab.
The target in assay [2] is T1, Pekin duck egg lysozyme isoform I (Anas platyrhynchos, Pekin duck, …, strain).
T1 construct: Allelic isoform I of C-type lysozyme of Pekin duck (Anas platyrhynchos), 129 positions; Asp66 and Asn103; First of three peaks eluted from CM resin; Observed intact mass 14391.88 Da; also called DEL-I; DL-1 (Kondo); source: purified from Pekin duck egg white (CM ion exchange, gel filtration)
T1 chain: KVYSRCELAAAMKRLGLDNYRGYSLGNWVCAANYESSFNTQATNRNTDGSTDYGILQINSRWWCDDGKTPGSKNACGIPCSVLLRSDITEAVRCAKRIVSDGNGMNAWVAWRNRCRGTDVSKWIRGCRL
As to conditions: both partners purified.

The target of assay [3] is T2, Pekin duck egg lysozyme isoform II (Anas platyrhynchos, Pekin duck, …, UniProt P00705, strain).
T2 construct: Isoform II of C-type lysozyme of Pekin duck (Anas platyrhynchos), 129 positions; entry P00705 (Kondo DL-2) differs at residues 66 and 103; Second of three peaks eluted from CM resin; Observed intact mass 14460.98 Da; No crystal structure; also called DEL-II; DL-2 (Kondo); source: purified from Pekin duck egg white (CM ion exchange, gel filtration)
As to conditions: both partners purified.

“Pekin duck egg lysozyme isoform III (enzyme)” came in with a Kd in assay [1] of over 1000 nM.

B1: HyHEL10 Fab (Fab, V domains shown)
VH: DVQLQESGPSLVKPSQTLSLTCSVTGDSITSDYWSWIRKFPGNRLEYMGYVSYSGSTYYNPSLKSRISITRDTSKNQYYLDLNSVTTEDTATYYCANWDGDYWGQGTLVTVSA
VL: DIVLTQSPATLSVTPGNSVSLSCRASQSIGNNLHWYQQKSHESPRLLIKYASQSISGIPSRFSGSGSGTDFTLSINSVETEDFGMYFCQQSNSWPYTFGGGTKLEIK
notes: HyHEL10 Fab heavy chain; HyHEL10 kappa light chain; Cloned into pCEP4; also called HyHEL10 Fab arm; source: Expi293, transiently expressed, purified from supernatant (HisTrap FF Crude)
For the molecule B1, the Kd in assay [2] is 40 nM; in assay [3], 34 nM.

As a reminder, the Kd is the equilibrium constant for the complex coming apart. High values mean lower affinity, low ones higher affinity.
